# Results reported in patent publication US20240392251A1, “CULTURE MEDIUM AND CULTURE METHOD FOR LUNG CANCER EPITHELIAL CELLS, AND APPLICATION THEREOF” (PRECEDO PHARMACEUTICALS CO., LTD, priority 2021, published 2024).
# Key:
# [1] = system: lung cancer epithelial cells (Sample No. B26); assay: Effects of different concentrations of the additive factors on proliferation of primary lung cancer cells; format: cell-based, human; settings: added to No. 8 medium lacking the factor; cell number ratio to Blank Control; FIGS. 3A-3H
# Procedure: (§1) Extracellular matrix gel (Matrigel®) was diluted with serum-free DMEM/F12 medium at a ratio of 1:100 to prepare an extracellular matrix diluent. The extracellular matrix diluent was added to a 48-well culture plate with 200 μl/well to completely cover the bottom of the wells of the culture plate. The culture plate was let stand for 1 hour in a 37° C. incubator. After 1 hour, the extracellular matrix diluent was removed to provide a Matrigel-coated plate.
# No. 8 culture medium for primary lung cancer epithelial cells was prepared.
# Lung cancer epithelial cells derived from cancer tissues were isolated from the cancer tissue of a lung cancer patient (Sample No. B26) using the same method as in Example 1. Next, lung cancer epithelial cells derived from cancer tissues were counted with a flow imaging counter (JIMBIO FIL, Jiangsu Jimbio Technology Co., Ltd.) to get the total number of cells. Then, the cells were inoculated at a density of 4×10^4 cells/cm^2 in a 48-well plate which was coated with Matrigel®. […] The centrifuged cell pellet was resuspended in the basic medium BM and the cells were counted with a flow imaging counter (JIMBIO FIL, Jiangsu Jimbio Technology Co., Ltd.) to get the total number of cells. […]
# [2] = system: lung cancer cells (No. B18); assay: Effects of different factors added to basic medium BM on proliferation of primary lung cancer cells; format: cell-based, human; settings: factor added to BM at the concentrations of Table 3; 12 days of culture; FIGS. 1A-1D
# Procedure: as §1, with “(Matrigel®) (manufactured by Corning)” for “(Matrigel®)”, “500” for “200”
# Preparation of basic medium (abbreviated as BM): BM was prepared by adding 0.2 vol. % of Primocin (purchased from Invivogen, with a concentration of 50 mg/ml) to the commercial DMEM/F-12 medium to provide a final concentration of 100 μg/ml.
# Next, different kinds and concentrations of additive factors (Table 3) were added to the basic medium (BM), so as to prepare culture mediums for lung cancer epithelial cells containing different additive components.
# The culture mediums with different components were added at a volume of 500 μl/well to 48-well plates which were coated with extracellular matrix gel (Matrigel). Lung cancer cells (No. B18) isolated from lung cancer tissues according to the same method as described in Example 1 were inoculated at a cell density of 2×10^4 cells/cm^2 in the above-mentioned 48-well culture plates which were coated with Matrigel. […]
molecule,measurement,setting,value
"epidermal growth factor: growth factor from Sino Biological Inc. (protein, UniProt P01133 23-1207, looked up, Pro-epidermal growth factor) Pro-epidermal growth factor: PQHWSCPEGTLAGNGNSTCVGPAPFLIFSHGNSIFRIDTEGTNYEQLVVDAGVSVIMDFHYNEKRIYWVDLERQLLQRVFLNGSRQERVCNIEKNVSGMAINWINEEVIWSNQQEGIITVTDMKGNNSHILLSALKYPANVAVDPVERFIFWSSEVAGSLYRADLDGVGVKALLETSEKITAVSLDVLDKRLFWIQYNREGSNSLICSCDYDGGSVHISKHPTQHNLFAMSLFGDRIFYSTWKMKTIWIANKHTGKDMVRINLHSSFVPLGELKVVHPLAQPKAEDDTWEPEQKLCKLRKGNCSSTVCGQDLQSHLCMCAEGYALSRDRKYCEDVNECAFWNHGCTLGCKNTPGSYYCTCPVGFVLLPDGKRCHQLVSCPRNVSECSHDCVLTSEGPLCFCPEGSVLERDGKTCSGCSSPDNGGCSQLCVPLSPVSWECDCFPGYDLQLDEKSCAASGPQPFLLFANSQDIRHMHFDGTDYGTLLSQQMGMVYALDHDPVENKIYFAHTALKWIERANMDGSQRERLIEEGVDVPEGLAVDWIGRRFYWTDRGKSLIGRSDLNGKRSKIITKENISQPRGIAVHPMAKRLFWTDTGINPRIESSSLQGLGRLVIASSDLIWPSGITIDFLTDKLYWCDAKQSVIEMANLDGSKRRRLTQNDVGHPFAVAVFEDYVWFSDWAMPSVMRVNKRTGKDRVRLQGSMLKPSSLVVVHPLAKPGADPCLYQNGGCEHICKKRLGTAWCSCREGFMKASDGKTCLALDGHQLLAGGEVDLKNQVTPLDILSKTRVSEDNITESQHMLVAEIMVSDQDDCAPVGCSMYARCISEGEDATCQCLKGFAGDGKLCSDIDECEMGVPVCPPASSKCINTEGGYVCRCSEGYQGDGIHCLDIDECQLGEHSCGENASCTNTEGGYTCMCAGRLSEPGLICPDSTPPPHLREDDHHYSVRNSDSECPLSHDGYCLHDGVCMYIEALDKYACNCVVGYIGERCQYRDLKWWELRHAGHGQQQKVIVVAVCVVVLVMLLLLSLWGAHYYRTQKLLSKNPKNPYEESSRDVRSRRPADTEDGMSSCPQPWFVVIKEHQDLKNGGQPVAGEDGQAADGSMQPTSWRQEPQLCGMGTEQGCWIPVSSDKGSCPQVMERSFHMPSYGTQTLEGGVEKPHSLLSANPLWQQRALDPPHQMELTQ","amount in the culture medium, most preferably",[1],20 ng/mL
same,effect on cell proliferation (ratio of number of cells to that in basic medium BM),[2],certain promoting effects on cell proliferation in specific concentration ranges
